{
  "source": "paper PMC7734321",
  "assay_in_all_cases": "MST",
  "details_in_all_cases": "N6 of strand 1 = tetrahydrofuran (F, abasic site analog), opposite G; MST: 50 mM Tris-HCl pH 7.5, 50 mM KCl, 1 mM EDTA, 1 mM DTT, 7% glycerol, 25 C, 10 min, 0.5 uM DNA; authors call Kd values estimates only",
  "key": {"[1]": {"biological_target": "T1, Fpg (formamidopyrimidine-DNA glycosylase) (Escherichia coli) (UniProt P05523)", "T1 sequence": "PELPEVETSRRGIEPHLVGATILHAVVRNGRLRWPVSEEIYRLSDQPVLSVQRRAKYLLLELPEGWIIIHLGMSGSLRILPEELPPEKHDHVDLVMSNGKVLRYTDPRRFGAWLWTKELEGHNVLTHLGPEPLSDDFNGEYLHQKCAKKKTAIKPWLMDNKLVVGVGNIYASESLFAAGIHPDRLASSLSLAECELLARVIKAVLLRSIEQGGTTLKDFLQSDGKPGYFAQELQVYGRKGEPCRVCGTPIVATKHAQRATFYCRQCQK"}, "[2]": {"biological_target": "NEIL1 (endonuclease VIII-like 1) (Homo sapiens) (UniProt Q96FI4)", "sequence (Q96FI4 2-390)": "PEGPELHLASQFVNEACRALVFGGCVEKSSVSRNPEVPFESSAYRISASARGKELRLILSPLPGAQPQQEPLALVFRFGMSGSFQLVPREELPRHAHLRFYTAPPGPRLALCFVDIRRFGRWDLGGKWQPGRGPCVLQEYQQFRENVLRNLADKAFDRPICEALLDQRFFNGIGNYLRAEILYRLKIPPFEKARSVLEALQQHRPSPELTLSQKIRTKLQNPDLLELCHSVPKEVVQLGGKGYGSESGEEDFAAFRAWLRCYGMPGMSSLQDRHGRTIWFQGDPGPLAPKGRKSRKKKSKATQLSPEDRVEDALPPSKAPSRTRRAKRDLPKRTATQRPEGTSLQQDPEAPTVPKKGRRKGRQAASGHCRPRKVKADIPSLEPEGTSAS"}, "[3]": {"biological_target": "T2, NTH1 (endonuclease III) (Homo sapiens) (UniProt P78549)", "T2 sequence": "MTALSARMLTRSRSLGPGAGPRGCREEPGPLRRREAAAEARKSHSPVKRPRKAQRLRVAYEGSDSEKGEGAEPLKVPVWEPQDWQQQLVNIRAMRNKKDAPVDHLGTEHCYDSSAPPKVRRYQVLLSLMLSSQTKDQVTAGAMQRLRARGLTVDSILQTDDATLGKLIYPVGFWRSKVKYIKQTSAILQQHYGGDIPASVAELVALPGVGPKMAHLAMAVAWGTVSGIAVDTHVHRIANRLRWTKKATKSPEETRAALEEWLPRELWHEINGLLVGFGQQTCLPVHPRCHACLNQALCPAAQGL"}, "[4]": {"biological_target": "T3, Nei (endonuclease VIII) (Escherichia coli) (UniProt P50465)", "T3 sequence": "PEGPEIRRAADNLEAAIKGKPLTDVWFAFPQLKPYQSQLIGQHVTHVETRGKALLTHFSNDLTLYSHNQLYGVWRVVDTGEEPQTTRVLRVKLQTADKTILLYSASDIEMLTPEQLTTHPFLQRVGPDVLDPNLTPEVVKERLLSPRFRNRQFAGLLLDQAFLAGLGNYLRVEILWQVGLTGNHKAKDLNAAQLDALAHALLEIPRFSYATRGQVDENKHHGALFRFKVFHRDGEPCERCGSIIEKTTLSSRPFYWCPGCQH"}, "[5]": {"biological_target": "OGG1 (8-oxoguanine-DNA glycosylase) (Homo sapiens) (UniProt O15527)", "sequence (O15527 whole entry)": "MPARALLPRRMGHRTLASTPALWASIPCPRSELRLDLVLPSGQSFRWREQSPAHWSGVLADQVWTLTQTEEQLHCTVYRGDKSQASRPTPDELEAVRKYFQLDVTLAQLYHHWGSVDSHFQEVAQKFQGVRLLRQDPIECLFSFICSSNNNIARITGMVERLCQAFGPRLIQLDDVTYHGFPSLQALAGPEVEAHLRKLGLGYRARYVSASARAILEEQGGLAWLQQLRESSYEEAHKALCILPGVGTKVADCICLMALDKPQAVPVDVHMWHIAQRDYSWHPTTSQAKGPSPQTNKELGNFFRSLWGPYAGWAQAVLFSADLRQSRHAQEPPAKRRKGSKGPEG"}},
  "data": [
    {"sequence": "GCTCANGTACAGAGCTG / CAGCTCTGTACGTGAGC [F/G]", "values": [
      {"measurement": "Kd", "setting": "[1]", "result": 1900, "unit": "nM"},
      {"measurement": "Kd", "setting": "[2]", "result": 4400, "unit": "nM"},
      {"measurement": "Kd", "setting": "[3]", "result": 300, "unit": "nM"},
      {"measurement": "Kd", "setting": "[4]", "result": 500, "unit": "nM"},
      {"measurement": "Kd", "setting": "[5]", "result": 2800, "unit": "nM"}
    ]}
  ]
}
